# Experimental data from US20110065649A1 (CENTRE NATIONAL DE LA RECHERCHE SCIENTIFIQUE CNRS, published 2011).
# Square brackets hold non-standard residues; d marks the D form. Ends that are not written are not given here. KΨPR = pseudopeptide unit Lys-Ψ(CH2-N)-Pro-Arg; Aib = CC(C)(N)C(=O)O
# B1: hexavalent compound Nucant 6 (peptide)
# chain: Ac-K(KΨPR)[Aib]GK(KΨPR)[Aib]GK(KΨPR)[Aib]GK(KΨPR)[Aib]GK(KΨPR)[Aib]GK(KΨPR)[Aib]G-NH2
# peptide: Lys-Pro-Arg
# modifications: also: chain 2 is the KΨPR unit, one copy bound via its C-terminus as amide on the ε-amine of each of the 6 Lys of chain 1, reduced bond Ψ(CH2-N) between K and P of chain 2
# Target: surface nucleolin on human cells (human, UniProt P19338 2-710)
# Sequence (P19338 2-710): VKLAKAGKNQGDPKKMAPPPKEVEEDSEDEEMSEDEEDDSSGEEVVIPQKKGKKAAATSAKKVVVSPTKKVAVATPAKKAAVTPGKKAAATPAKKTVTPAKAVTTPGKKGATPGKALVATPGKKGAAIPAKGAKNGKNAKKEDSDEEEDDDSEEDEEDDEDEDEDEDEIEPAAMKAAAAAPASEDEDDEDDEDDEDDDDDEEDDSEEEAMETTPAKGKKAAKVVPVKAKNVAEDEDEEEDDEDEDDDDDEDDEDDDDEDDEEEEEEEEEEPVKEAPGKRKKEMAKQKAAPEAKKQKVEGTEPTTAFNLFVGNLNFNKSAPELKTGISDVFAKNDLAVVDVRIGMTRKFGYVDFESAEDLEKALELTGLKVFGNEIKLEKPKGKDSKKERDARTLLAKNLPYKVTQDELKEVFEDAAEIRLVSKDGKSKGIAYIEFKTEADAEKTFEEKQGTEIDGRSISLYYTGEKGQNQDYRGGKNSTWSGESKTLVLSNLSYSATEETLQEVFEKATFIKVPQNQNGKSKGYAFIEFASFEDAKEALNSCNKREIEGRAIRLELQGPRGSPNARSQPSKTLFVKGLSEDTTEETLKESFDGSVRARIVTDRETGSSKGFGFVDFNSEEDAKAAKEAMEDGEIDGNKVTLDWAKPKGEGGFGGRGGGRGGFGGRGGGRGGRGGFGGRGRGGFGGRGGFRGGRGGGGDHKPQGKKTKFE
# Experiment: cell-based or functional assay
binder,measurement,value
B1,ID50 (Inhibitory Dose at 50%) of surface nucleolin activity in HeLa P4 cells,< 100 nM
